This assay deals with T1, His-Miro2(220–592) (UniProt Q8IXI1 220-592).
T1 construct: Mitochondrial Rho GTPase 2 (Miro2), amino acids 220–592, in pET-32a; source: E. coli BL21, purified
In words: pull-down; GST pull-down of recombinant GST-PS2 fragments with recombinant His-Miro2 fragments; bound material eluted with SDS sample buffer, SDS-PAGE and Western blot (Fig. 5C, D). The note with it: both partners purified.

Consider one molecule from article PMC11249618, “Presenilin2 D439A Mutation Induces Dysfunction of Mitochondrial Fusion/Fission Dynamics and Abnormal Regulation of GTPase Activity” (Molecular Neurobiology, 2023).

T1 sequence (Q8IXI1 220-592): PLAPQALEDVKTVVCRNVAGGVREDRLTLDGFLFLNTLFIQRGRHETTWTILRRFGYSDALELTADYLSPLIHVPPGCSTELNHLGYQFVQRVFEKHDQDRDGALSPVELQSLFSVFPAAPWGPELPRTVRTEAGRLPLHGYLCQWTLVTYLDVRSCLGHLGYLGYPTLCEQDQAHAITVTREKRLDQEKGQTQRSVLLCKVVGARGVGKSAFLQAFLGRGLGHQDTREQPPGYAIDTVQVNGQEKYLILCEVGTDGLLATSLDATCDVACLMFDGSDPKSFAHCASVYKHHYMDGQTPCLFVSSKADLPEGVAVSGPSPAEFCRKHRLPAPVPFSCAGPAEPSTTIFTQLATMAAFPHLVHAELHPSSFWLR

B1: GST-PS2(271–361) (domain or fragment)
chain: not shown
notes: source: E. coli BL21, purified
Take B1: the binding result is reported as “binds”.
